The data set is described as follows: label from the status in PepcDB records.

For “LDTIPTTYVDAGSVFGKTGDAEKVLNGGWNYLMETFNSYANPGYGAMLRANDAMGSDVVLNSKYGFRTHNEFSAIYGKGGTNTLSWLLAYRVINDCNGVLDNIDAAEGTQADRNRIKGQALALRGFLYLHLASCYSFAIDKDPDAVCAPIYTQSTDETIAAEGKPASSVSEVYAQSINDLEEALELIPETYVRDAKHKIDNEVVLGILSRACLYARQWEKAKTYSDKLLAKDNYLMTESEYKAGFNSVDNKEWIWGHAQTNDQSNASYQFHYLDTTTKGSYYYSFNVDPYFRDLFEDGDYRKEMLFWATDPGADVESAAYVWMRNSKFRFRDIENQLGDIVLMRVAEIYLINAEAKAHLNDPDAINKLNDLKTARGAKTIHTNLSQQDLLETIWLERRKELWGEGFSLIDIIRNQQTVVRNAYPEGPIDYIYTDENGQTHTLKKKTQGHRFFNFPDKSAFCPNSKYYLYRITDSEELANKNLYKDHPKLSIYTK”, the protein production entry is “not failed”.

On to “LDYQRLYGTRCFSCDQFIEGEVVSALGKTYHPDCFVCAVCRLPFPPGDRVTFNGKECMCQKCSLPVSV”, for which the protein production result was “not failed”.

Consider “LEAVAPERPRCAYCSAEASKRCSRCQNEWYCCRECQVKHWEKHGKTC”, for which the protein production entry is listed as “not failed”.

Turning to “LECDGKVNICCKKQFFVSFKDIGWNDWIIAPSGYHANYCEGECPSHIAGTSGSSLSFHSTVINHYRMRGHSPFANLKSCCVPTKLRPMSMLYYDDGQNIIKKDIQNMIVEECGCS”, the protein production result is listed as “not failed”.

“LETSWIKPGQASWEWWNDAAPYGPDVNFVSGYNLETYKYYIDFASKYGIRYIIMDEGWAKSTRDPYTPNAKVDVHELIRYAEKKNVGIVLWLTWLTVENNMDLFKTFSEWGVKGVKIDFMDRSDQWMMNFYERVAAEAAKYKLFVDFHGSVSPKGLEYKYPNVLSYEGVRGMEQMGGATPDNSIFMPFMRNAVGAMDYTPGAM”: the protein production entry is “failed”.

In the case of “LETYNTCDTPPPLNNLTPYRDDGKEALKFYTDPSYFFDLWKEKMLQDTKDIMKEKRKHRKEKKDNPNRGNVNPRKIKTRKEEWEKMKMGQEF”, the protein production entry was “failed”.

Take “LFGVTSELSKDGRERIYRVEGQLFYASVEDFMAAFDFREALDRVVIDVSRAHIWDISSVQALDMAVLKFRREGAEVRIVGMNEASETMVDRLAIHD”: the protein production result is listed as “not failed”.

In the case of “LGEICKAVLVDPSSNLTLDHWADKCGLSRRTLTRLFRRETGQSFSGWRQRVRLLEALARLGAGETVTGVALDVGYDSPSAFAAMFKRELGAAPRHYLR”, the protein production entry is on record as “failed”.

As for “LGKILQGVVVVLSGFQNPFRSELRDKALELGAKYRPDWTRDSTHLICAFANTPKYSQVLGLGGRIVRKEWVLDCH”, the protein production entry is reported as “failed”.

On to “LGNEDFNSVIQQMAQGRQIEYIDIERPSTGGLGFSVVALRSQNLGKVDIFVKDVQPGSVADRDQRLKENDQILAINHTPLDQNISHQQAIALLQQTTGSLRLIVAREPVHTKSST”, for which the protein production entry is recorded as “not failed”.

Regarding “LGVVPEVRDWFTLGDHRFLVMDFLEGRPLNSFFAERHPLLTPDPEPDAVAAYTAWALRIHRAVEQAVHAVHARGIVFNDLHVFNIMVAPDEESVSLLDFEAAAPIEEN”, the protein production entry is listed as “failed”.

On to “LHDTDQQGMFERGSAIVEPRFRSLLQQIGSMLGEIDNRLLVVGHTDAAQYHRAGGFAAMSNWSLSSNRAMAARLHMMQGGLAADSVLQVVGMAERAPLDKQHPLGAVNRRIELLVLTSGQAQA”, for which the protein production entry is on record as “failed”.

With “LHYVHVGNKKSPNTLLFVHGSGCNLKIFGELEKYLEDYNCILLDLKGHGESKGQCPSTVYGYIDNVANFITNSEVTKHQKNITLIGYSMGGAIVLGVALKKLPNVRKVVSLSGGARFDKLDKDFMEKIYHNQLDNNYLLECIGGIDNPLSEKYFETLEKDPDIMINDLIACKLIDLVDNLKNIDIPVKAIVAKDELLTLVEYSEIIKKEVENSELKIFETGKHFLLVVNAKGVAEEIKNFI”, the protein production result is “failed”.

Regarding “LKLTKIIVSEAGASVYSASEIAANEFPDLDVSLRGAVSIARRLQDPLAELVKIEAKSIGVGQYQHDVNQAKLARCLDGVVEDCVNAVGVDINTASAALLSHISGLNDTLAKNIVQFRDEHGAFTNRNQLKNIHRMGEKAFQQAAGFLRIMNGDNALDASCVHPEAYPLVEKIISDKKVSIKEIIGNRELLQSINAEQYVDENFG”, the protein production result was “failed”.

With “LLEIKRKGAKRGSQHYSDRTCARCQESLGRLSPKTNTCRGCNHLVCRDCRIQESNGTWRCKVC”, the protein production entry is given as “not failed”.

Regarding “LLNMKRAETGKALSPLQIQELQYMLEDFSPELIHEALKEAVSQGKANFAYIKVILNRWKQDNLLTVELVRN”, the protein production entry was “failed”.

On to “LNDLKESSNNRKARVLYDYDAANSTELSLLADEVITVFSVVGMDSDWLMGERGNQKGKVPITYLELLN”, for which the protein production result is listed as “not failed”.

With “LNTAPIFMPNTVGGYFPGPRTFPGNKKILYNSSTMVKALSRGYVVVSAGLRGRTLTNEKGEFIGKAPAFIIDMKAAIRYIKFNKDNFPGDVNKIITNGTSAGGAISALIGASGNNVFFEKELDEIGAADSSDNIFAVSAYCPIHNLENADAAYEWQFNGINDWHTQKIDIKNGKAEFSPLNGQLNELEKQLSSKLKNQFIEYLNSLRLRNPDGDYLTLNKIGEGNFLDLTKKFLIKSAQTEIEKGNELNNPNFLDIRNGKVVSLKWKAYLRYITRMKKVPAFDDLGLNNPENDLFGDIKIKAKHFTEIGQKYSEKTAKKADPELVTAINPLNYLNNQSNSLIAKHWRIRHGAADRDTSFAVPIILATTLQNMNLDIDFFMPWAKPHSGDYDLIDLFDWIDSLVKEK”, the protein production result is recorded as “failed”.

As for “LPAGLYFVGTPIGSARDITLRALDVLASAEVIAAEDTRSLRHLLDIHGVPLDGRRVLAYHDHSGAGAQARLLEALAEGKSVAYASEAGMPLIADPGFELSRAAAEAGHMVTC”, the protein production result is on record as “not failed”.

“LPAHSWLGSFQAAGFDLVGQAWLPEQPSATLFLLHGYYDHMGLYRHVIEWALKQGFAVISCDLPGHGLSSGERASITDFAVYQQVLEALFEQAHTLQLPHPWHLCGQSTGGAIAVDHLLHQGARSPVDGQVILLAPLVRPSSWRWSKFSYCVLRHFVNGIERRFSENTNDPAFLPFLEADPLQPRRLPTAWVGALIAWVKRIEAAPRSARRPLIVQGEADGTVDWPHNLEVLKAKFAEPQILMLPEARHHLANELPGIRQRYFDFIDQRLG”: the protein production entry is on record as “failed”.

For “LQQQEEETYADACDEFLDPIMSTLMCDPVVLPSSRVTVDRSTIARHLLSDQTDPFNRSPLTMDQIRPNTELKEKIQRWLAERKQQ”, the protein production entry is recorded as “not failed”.

“LRASEESFRQAFEYAPSGMAIAEMGGDQHGRILRTNDALCRLLGRPASAMRRYSFSDLVHPEDIGTLLRTSAEGGRAELRLGRRDGTYVWVSLRNSVVADAADGPRFLLTHVEDIEERKRRELQLAHRASHDSLTGLPNSAELRSRLSARLCRRPQSAELGAVESLDAAYAHGQYTTEHPAAYDTSGHGEQPGHGHGFDFTQGPGPYDAFDHHVHTVAPEGQTDDGTKGLAVLFCDLDGFKSINDRFGH”: the protein production entry is reported as “failed”.

Turning to “LSHGDFELAVPGGPVAAYYAAPAGREQLPIVLVVQEIFGLHEHIKDVCRRLAHDGYLAVSVNLYQRQGDASRYDNIPGLVAELVSKVPDEQVHADLDASLAWAAAHGGDGARVGVTGFCWGGRTTWMYAARNPAVKAGVAWYGRLSSGHGPLIKQVPLDVAGSLHAPVLGLYGGKDESIPLDDVRAMEARLQQGGAPAQASRIVVYPQAGHAFLADYRPSYRAADAQDGWRRMLDWFALYL”, the protein production entry is reported as “failed”.

“LTGFQNYLNSIIDSMPSALIALDEQLYVTQWNQEASALSGTRLDEALNQPIFLAFEPLKPFLPQLKETVEQHTVTKVERVTWFKDEEPKHYALTFYPLMGGAGRGVVIRIDDITQRLSLEEMMVQSEKMLSVGGLAAGMAHEINNPLGAI”: the protein production entry is “failed”.

Consider “LTLRSVFQPIFDKQHQVVGAEALVRIFTQHHTQIRPDLFFHSETFADDDKLNVERLSRAIHIRNFSLSPYRDTRLFLNVLPVAGEQFAYCDISSTLLATRLAELNIPHHRVVMELVEIESGDEGMLQMATEKLVANGFQIAIDDFGCKASTPERVAMLRPNIIKLDRQLLLDFMAGDCCGLLAGVQLAQKTGAHTVVEGIETAEQLAAMQKLDINMYQGYYLALP”, for which the protein production entry was “failed”.

For the origin of these results see a protein production outcome set (Wang et al. 2014).
